The binders below were run against T1, SARS-COV-2 RBD (SARS-COV-2, UniProt P0DTC2 319-539) (assay: ELISA, RBD coated on plate).
T1 construct: also called WT RBD

Binder | EC50
C943 (antibody, V domains shown) VH: QVQLVESGGGVVQPGRSLRLSCAASGFPFSSFGMHWVRQAPGRGLEWVALILYDGDNKYYADSVKGRFTISRDNSKNTLYLQMNSLRAEDTAVYYCAKDIGGGSSPPFFDYWGQGTLVTVSS VL: SYELTQAPSVSLAPGKTARITCGENNIGSKSVHWYQQKPGQAPVLVIYYDSDRPSGIPERFSGSNSGNTATLTISRVEAGDEADYYCQVWDSSSDHVMFGGGTKLTVL | 2.59 ng/mL
C944 (antibody, V domains shown) VH: QVQLVESGGGVVQPGRSLRLSCAASGFTFSSYGMHWVRQAPGKGLEWVAVISYDGSYKYYADSVKGRFTISRDNSKNTLYLQMNSLRAEDTAVYYCAKGSGSQLYYYYGMDVWGQGTTVTVSS VL: not shown | 1.71 ng/mL
C936 (antibody, V domains shown) VH: EVQLVESGGGLIQPGGSLRLSCAASGFTVSSNYMSWVRQAPGKGLEWVSVIYSGGSTFYADSVKGRFTISRDNSKNTLYLQMNSLRAEDTAVYYCARDLGTGLFDYWGQGTLVTVSS VL: DIQLTQSPSFLSASVGDRVTITCRASQGISSYLAWYQQKPGKAPKLLIYAASTLQSGVPSRFSGSGSGTEFTLTISSLQPEDFATYYCQQLDSYPPGTFGPGTKVDIK | 1.56 ng/mL
C937 (antibody, V domains shown) VH: EVQLVESGGGLIQPGGSLRLSCAASELTVSSNYMSWVRQAPGKGLEWVSVIYPGGSTFYADSVKGRFTISRDNSKNTLYLQMNSLRAEDTAVYYCARDLGTGLFDYWGQGTLVTVSS VL: DIQLTQSPSFLSASVGDRVTITCRASQGISSYLAWYQQKPGKAPKLLIYAASTLQSGVPSRFSGSGSGTEFTLTISSLQPEDFATYFCQLLNSNPPGTFGPGTKVDIK | 0.97 ng/mL
C945 (antibody, V domains shown) VH: QVQLVQSGAEVKKPGASVRISCKASGYTFTNYYMHWVRQAPGQGLEWMGIINPSGGSTTYAPKFQARVTMTRDTSTSTVYMELSSLRSDDTAVYYCARDYVLVPARSGMDVWGQGTTVTVS VL: EIVLTQSPATLSLSPGERATLSCRASQSVSSYLAWYQQKPGQAPRLLIYDASNRATGIPARFSGSGSGTDFTLTISSLEPEDFAIYYCQQRSNWPYTFGQGTKLEIK | 3.13 ng/mL
C942 (antibody, V domains shown) VH: QVQLVESGGGVVQPGRSLRLSCAASGFTFSSYVMHWVRQAPGKGLEWVAIISSDGNTKYYADSVKGRFTISRDNSKNTLYLQMNSVRTDDTAVYYCARDGTTMTPTDLLTDWGQGTLVTVSS VL: not shown | 2.13 ng/mL
C926 (antibody, V domains shown) VH: QVQLVESGGGVVQPGRSLRLSCAASGFGLITYSMHWVRQAPGKGLEWVGLISFDGNTTYYADSVRGRFTISRDNLANILYLQMNSLRPDDTALYYCARDKRGVIRGLLNFWGQGSLVTVSS VL: DIVMTQSPDSLAVSLGERATINCKSSQSLLPSSNSNNYLAWYQQKSGQPPNLLIYWASTRESGVPDRFSGSGSETDFSLTISNLQAEDVAVYYCQQYYNTPHTFGGGTKVEI | 4.72 ng/mL
C932 (antibody, V domains shown) VH: QVQLVESGGSVVQPGKSLRLSCAGSGFAFSTYGMHWVRQAPGKGLEWVAVISSDGGNKYYADSVKGRFTISRDNYENTLYLQMNSLGAEDTAVYYCAKVALRGVFISLYYGMDVWGQGTTVTVSS VL: SYELTQPPSVSVTPGQTASITCSGDKLGDKYACWFLQKPGQSPLLVIYQDTKRPSGIPDRLSGSKSGNTATLTISGTQAMDEADYYCQTWDSSAVVFGGGTKLTV | 3.57 ng/mL
C935 (antibody, V domains shown) VH: QVQLVESGGGVVQPGRSLRLSCAATGFTFSSYGMHWVRQAPGKGLEWVALIWYDGSNQYYVDSVKGRFTISRDNSKKTLYLQMNSLRVEDTAVYYCARDFSNSDMVTLSDAFDIWGQGTMVTVSS VL: DIQLTQSPSFLSASVGDRVTIACRASQGISSYSSYLAWYQQKPGKAPKLLIYAASTLQSGVPSRFSGSGSGTEFTLTISSLQPEDFATYYCQQLNSYPLFTFGPGTKVDIK | 2.86 ng/mL
C940 (antibody, V domains shown) VH: QVQLQESGSGLVKPSQTLSLTCAVSGGSASSGGYSWSWIRQPPGKGLEWIGYIYHSGSTYYNPSLKSRVTISLDRTKKQFSLKLSSVTAADTAVYYCARFCLSGSHYLFAFDIWGPGTMVTVSS VL: QSALTQPASVSGSPGQSITISCTATSSDVGGYNFVSWYQQYPGKVPKLLIYDVGNRPSGVSNRFSGSKSGNTASLTISGLQAEDEADYYCSSYTNSSTFFGGGTKLTVL | 1.8 ng/mL
C934 (antibody, V domains shown) VH: QVQLVQSGAEVKKPGASVKVSCKASGYTFTDYYIHWVRQAPGQGLEWMGWINPNSGGTNYAQKFQGRVTMTRDTSISTAYMDLSRLRSDDTAVYYCARDVIITMGRGVVFRMDVWGQGTTVTVSS VL: not shown | 0.95 ng/mL
C938 (antibody, V domains shown) VH: QVQLVESGGGVVQPGRSLRLSCAASGFTFRSHAMHWVRQAPGKGLEWVAIISSDGFNKYYADSVKGRFTISRDNSKNTLYVHMNSLRVEDTAIYYCASGLLWFETREISGAPDYGMAVWGQGATVTVSS VL: DIQMTQSPSSLSASVGDRVTITCRASQNISNFLNWYQQKPGKAPKLLIYAASSLQSGVPSRYSGSGSGTDFTLTISSLQAEDFATYYCQQSYSTPLTFGGGTKVEIK | 2.63 ng/mL
C931 (antibody, V domains shown) VH: QVQLVESGGGVVQPGRSLRLSCAASGFSFSTYGMHWVRQAPGKGLEWVAVISFDGSQKYYGDSVKGRFTISRDNPKNTLDLQMNSLRAEDTAVYYCAKVVVRGVIISLYYGMDVWGQGTTVTVSS VL: not shown | 2.57 ng/mL
C913 (antibody, V domains shown) VH: EVQLVESGGVVVQPGGSLRLSCAASGFTFDDYSMHWVRQVPGKGLEWIAVIFWDGTSTYYADSVKGRFTISRDNSKKSLYLQMNSLRSEDTALYYCAKDSEDCSSTSCYVDHWGQGTLVTVSS VL: not shown | 2.58 ng/mL
C951 (antibody, V domains shown) VH: QVQLQESGPRLVKPSGTLSLTCAVSGGSISTTNWWSWVRQPPGKGLEWIGEIHHSGNTNYNPSLKSRVTISVDRSKNQFSLKLSSVTAADTAVYFCARDGGRPGDPFDIWGQGTMVTVSS VL: QSALTQPASVSGSPGQSITISCTGTSSDVGGYNYVSWYQQHPGKAPNLMIYDVSDRPSGVSNRFSGSKSGNTASLTISGLQAEDEADYYCNSFTSNSTRVFGTGTKVTV | 0.81 ng/mL
C939 (antibody, V domains shown) VH: QVQLVESGGGVVQPGRSLRLSCAASGFTFSSYAMHWVRQAPGKGLESVALISHDGSNKYHADSVKGRLTISRDTSKNTLYLQMDSLRPEDTAVYYCASGLLWFETAGGSGAPDYGMAVWGQGTTVTVSS VL: DIQMTQSPSSLSASVGDRVTITCRASQSISTYLNWYQQKPGRAPKFLIYAASSLQSGVPSRFSGSGSGTDFTLIISGLQPEDFATYFCQQSYNTPLTFGGGTKVEIK | 3.62 ng/mL
C941 (antibody, V domains shown) VH: QVQLVQSGAEVKKPGSSVKVSCKASGGTSRSYPISWVRQAPGQGLEWMGRIIPIVGTANYAQRFQGRVTITADESTGTAYMELSSLRSEDTAVYYCARNRGYSDYGSVYYFDYWGQGTLVTVSS VL: QSVLTQPPSVSGAPGQRVTISCTGSSSNIGAGYDVHWYQQLPGAAPKLLIYRNINRPSGVPDRFSGSKSGTSASLAITGLQADDEADYYCQSYDSSLSGSVFGGGTKLTV | 1.92 ng/mL
